{"source": "patent US20170210813A1", "about": "(Regeneron, published 2017)", "molecular_target": "human PDGF-BB (human, UniProt P01127 82-190)", "sequence (P01127 82-190 limits assumed)": "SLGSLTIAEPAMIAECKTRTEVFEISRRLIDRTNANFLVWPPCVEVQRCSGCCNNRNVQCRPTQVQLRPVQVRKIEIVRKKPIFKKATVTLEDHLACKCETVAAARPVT", "assay": "SPR (Biacore 3000), 30 nM ligand over hPDGFRb.mFc captured by anti-mouse Fc, no antibody", "description": "Real-time binding response was monitored throughout the course of the assay and was compared to the binding response measured when PDGF ligand was applied over the derivatized captured control surface in the absence of captured antibody."}
{"binder": "human PDGFRb.mFc (Fc fusion, Soluble dimeric construct with mouse Fc; also called hPDGFRb.mFc; soluble human PDGFR-beta.mFc) LVVTPPGPELVLNVSSTFVLTCSGSAPVVWERMSQEPPQEMAKAQDGTFSSVLTLTNLTGLDTGEYFCTHNDSRGLETDERKRLYIFVPDPTVGFLPNDAEELFIFLTEITEITIPCRVTDPQLVVTLHEKKGDVALPVPYDHQRGFFGIFEDRSYICKTTIGDREVDSDAYYVYRLQVSSINVSVNAVQTVVRQGENITLMCIVIGNEVVNFEWTYPRKESGRLVEPVTDFLLDMPYHIRSILHIPSAELEDSGTYTCNVTESVNDHQDEKAINITVVESGYVRLLGEVGTLQFAELHRSRTLQVVFEAYPPPTVLWFKDNRTLGDSSAGEIALSTRNVSETRYVSELTLVRVKVAEAGHYTMRAFHEDAEVQLSFQLQINVPVRVLELSESHPDSGEQTVRCRGRGMPQPNIIWSACRDLKRCPRELPPTLLGNSSEEESQLETNVTYWEEEQEFEVVSTLRLQHVDRPLSVRCTLRNAVGQDTQEVIVVPHSLPFKEPRGPTIKPCPPCKCPAPNLLGGPSVFIFPPKIKDVLMISLSPIVTCVVVDVSEDDPDVQISWFVNNVEVHTAQTQTHREDYNSTLRVVSALPIQHQDWMSGKEFKCKVNNKDLPAPIERTISKPKGSVRAPQVYVLPPPEEEMTKKQVTLTCMVTDFMPEDIYVEWTNNGKTELNYKNTEPVLDSDGSYFMYSKLRVEKKNWVERNSYSCSVVHEGLHNHHTTKSFSRTPGK", "values": [{"measurement": "binding result", "result": "binds"}]}
